Laboratory results taken from patent US20100021477A1 (Janssen / Centocor, published 2010).

Key:
[1] = molecular target: T1, Hen-Egg White Lysozyme (HEL) (hen, UniProt P00698 19-147); assay: BIAcore
[2] = molecular target: T2, Bovine Serum Albumin (BSA) (bovine, UniProt P02769 25-607); assay: BIAcore, BSA on the chip (40 RU)
[3] = molecular target: T2, Bovine Serum Albumin (BSA); assay: BIAcore, BSA on the chip (40 RU), purified Fab
[4] = molecular target: T2, Bovine Serum Albumin (BSA); assay: BIAcore, BSA on the chip (40 RU), purified Fab; apparent KD
[5] = molecular target: T1, Hen-Egg White Lysozyme (HEL); assay: BIAcore, lysozyme on the chip (10 RU), purified Fab; apparent KD
[6] = molecular target: T2, Bovine Serum Albumin (BSA); assay: BIAcore
[7] = molecular target: T1, Hen-Egg White Lysozyme (HEL); assay: BIAcore, lysozyme on the chip (10 RU), purified Fab

T1 sequence (P00698 19-147 limits assumed): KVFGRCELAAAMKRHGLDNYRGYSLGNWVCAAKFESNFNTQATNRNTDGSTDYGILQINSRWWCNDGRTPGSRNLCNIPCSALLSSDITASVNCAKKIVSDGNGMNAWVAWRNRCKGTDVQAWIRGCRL
T2 sequence (P02769 25-607 limits assumed): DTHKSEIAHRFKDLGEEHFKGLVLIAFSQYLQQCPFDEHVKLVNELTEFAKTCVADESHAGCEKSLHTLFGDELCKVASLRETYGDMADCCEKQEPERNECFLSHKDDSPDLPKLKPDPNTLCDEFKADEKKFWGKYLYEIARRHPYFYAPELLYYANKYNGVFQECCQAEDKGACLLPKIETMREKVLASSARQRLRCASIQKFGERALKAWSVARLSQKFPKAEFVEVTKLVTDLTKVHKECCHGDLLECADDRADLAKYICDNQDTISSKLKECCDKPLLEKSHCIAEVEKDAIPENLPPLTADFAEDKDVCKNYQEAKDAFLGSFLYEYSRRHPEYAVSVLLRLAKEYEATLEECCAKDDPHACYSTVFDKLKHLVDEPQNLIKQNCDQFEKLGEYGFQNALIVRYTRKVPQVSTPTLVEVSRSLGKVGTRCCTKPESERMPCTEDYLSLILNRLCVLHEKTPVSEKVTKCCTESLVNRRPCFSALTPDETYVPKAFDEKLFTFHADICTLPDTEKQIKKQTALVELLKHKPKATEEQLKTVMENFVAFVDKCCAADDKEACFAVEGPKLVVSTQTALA

B1: Fab C6 (Fab, V domains shown)
VH: QVQLVQSGAEVKKPGSSVKVSCKASGGTFSSYGISWVRQAPGQGLEWMGGIIPIFGTANYAQKFQGRVTITADESTSTAYMELSSLRSEDTAVYYCARLCVSPAWDQCFDYWGQGTLVTVSS
VL: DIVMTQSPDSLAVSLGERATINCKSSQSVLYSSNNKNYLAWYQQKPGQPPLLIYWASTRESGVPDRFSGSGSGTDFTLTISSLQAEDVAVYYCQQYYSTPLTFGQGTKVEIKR
notes: also called C6 (Hc/Lc)
B1: no binding [1]; no binding [2].

B2: Fab C2 (Fab, V domains shown)
VH: QVQLVQSGAEVKKPGSSVKVSCKASGGTFSSYAISWVRQAPGQGLEWMGGIIPINGNANYAQKFQGRVTITADESTSTAYMELSSLRSEDTAVYYCARRAGMRVQTYYFFDYWGQGTLVTVSS
VL: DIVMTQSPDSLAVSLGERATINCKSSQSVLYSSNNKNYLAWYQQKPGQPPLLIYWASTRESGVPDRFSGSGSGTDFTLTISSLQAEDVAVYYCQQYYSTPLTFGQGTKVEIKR
notes: also called C2 (Hc/Lc)
For B2, the binding result [1] was “no binding”, the koff [3] was 0.00169 s⁻¹ and the kon [3] was 60000 M⁻¹ s⁻¹. The Kd [4] was 28 nM.

B3: Fab E7 (Fab, V domains shown)
VH: QVQLVQSGAEVKKPGSSVKVSCKASGGTFSSYAISWVRQAPGQGLEWMGGIIPIFGTANYAQKFQGRVTITADESTSTAYMELSSLRSEDTAVYYCAREGGEVYDWEYYLDYWGQGTLVTVSS
VL: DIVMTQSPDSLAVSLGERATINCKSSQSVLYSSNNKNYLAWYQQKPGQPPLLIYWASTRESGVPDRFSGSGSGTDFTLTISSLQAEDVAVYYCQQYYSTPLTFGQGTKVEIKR
notes: also called E7 (Hc/Lc)
For B3, the Kd [5] was 260 nM, the binding result [6] was “no binding” and the koff [7] was 0.12 s⁻¹. It also gave a kon [7] of 460000 M⁻¹ s⁻¹.

B4: Fab D6 (Fab, V domains shown)
VH: QVQLVQSGAEVKKPGSSVKVSCKASGGTFSSYAISWVRQAPGQGLEWMGGIIPIFGTANYAQKFQGRVTITADESTSTAYMELSSLRSEDTAVYYCARGIIGINLVVLDYWGQGTLVTVSS
VL: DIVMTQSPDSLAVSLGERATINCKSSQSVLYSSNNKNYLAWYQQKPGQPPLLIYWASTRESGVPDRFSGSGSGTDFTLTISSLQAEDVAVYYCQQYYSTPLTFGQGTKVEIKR
notes: also called D6 (Hc/Lc)
B4 was tested, and the binding result [1] was “no binding”, the koff [3] was 0.00195 s⁻¹ and the kon [3] was 572000 M⁻¹ s⁻¹. It also gave a Kd [4] of 4 nM.

B5: Fab F6 (Fab, V domains shown)
VH: QVQLVQSGAEVKKPGSSVKVSCKASGGTFSSYAISWVRQAPGQGLEWMGGIIPIFGTANYAQKFQGRVTITADESTSTAYMELSSLRSEDTAVYYCARGIIGTITYVFDYWGQGTLVTVSS
VL: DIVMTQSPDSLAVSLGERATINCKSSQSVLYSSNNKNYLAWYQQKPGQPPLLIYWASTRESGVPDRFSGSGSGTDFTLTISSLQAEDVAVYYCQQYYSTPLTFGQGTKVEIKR
notes: also called F6 (Hc/Lc)
For B5, the binding result [1] was “no binding”, the koff [3] was 0.0113 s⁻¹ and the kon [3] was 430000 M⁻¹ s⁻¹. The Kd [4] was 26 nM.

B6: Fab F4 (Fab, V domains shown)
VH: QVQLVQSGAEVKKPGSSVKVSCKASGGTFSSYGISWVRQAPGQGLEWMGGIIPIFGTANYAQKFQGRVTITADESTSTAYMELSSLRSEDTAVYYCARDFGVYTWLGQTFDYWGQGTLVTVSS
VL: not shown
notes: also called F4 (Hc/Lc)
In the case of B6, the binding result [1] is reported as “no binding”, the koff [3] is reported as 0.00048 s⁻¹ and the kon [3] is reported as 51000 M⁻¹ s⁻¹. For the same binder, the Kd [4] was 9 nM.

B7: Fab D11 (Fab, V domains shown)
VH: QVQLVQSGAEVKKPGSSVKVSCKASGGTFSSYAISWVRQAPGQGLEWMGGIIPIFGTANYAQKFQGRVTITADESTSTAYMELSSLRSEDTAVYYCARIRWGGWFRGYLDYWGQGTLVTVSS
VL: not shown
notes: also called D11(Hc/Lc)
B7: no binding [1].

B8: Fab E5 (Fab, V domains shown)
VH: QVQLVQSGAEVKKPGSSVKVSCKASGGTFSSYAISWVRQAPGQGLEWMGWIIPYNGNANYAQKFQGRVTITADESTSTAYMELSSLRSEDTAVYYCARHTPVRDLDYWGQGTLVTVSS
VL: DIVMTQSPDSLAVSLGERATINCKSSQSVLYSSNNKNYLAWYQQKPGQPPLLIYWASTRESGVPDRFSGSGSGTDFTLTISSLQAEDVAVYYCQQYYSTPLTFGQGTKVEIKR
notes: also called E5 (Hc/Lc)
For B8, the Kd [5] was 10 nM, the binding result [6] was “no binding” and the koff [7] was 0.00233 s⁻¹. The kon [7] was 227000 M⁻¹ s⁻¹.
